# Data as given in US8093037B2, “Engineered microorganisms with enhanced fermentation activity” (Verdezyne, Inc., priority 2009, dated 2012).
# B1: R. flavefaciens, FD-1 XI: xylose isomerase of Ruminococcus FD1, ZP_06143883.1, SEQ ID NO: 110 (protein, listed as Ruminococcus flavefaciens)
# chain: MEFFKNISKIPYEGKDSTNPLAFKYYNPDEVIDGKKMRDIMKFALSWWHTMGGDGTDMFGCGTADKTWGENDPAARAKAKVDAAFEIMQKLSIDYFCFHDRDLSPEYGSLKDTNAQLDIVTDYIKAKQAETGLKCLWGTAKCFDHPRFMHGAGTSPSADVFAFSAAQIKKALESTVKLGGTGYVFWGGREGYETLLNTNMGLELDNMARLMKMAVEYGRSIGFKGDFYIEPKPKEPTKHQYDFDTATVLGFLRKYGLDKDFKMNIEANHATLAQHTFQHELCVARTNGAFGSIDANQGDPLLGWDTDQFPTNIYDTTMCMYEVIKAGGFTNGGLNFDAKARRGSFTPEDIFYSYIAGMDAFALGYKAASKLIADGRIDSFISDRYASWSEGIGLDIISGKADMAALEKYALEKGEVTDSISSGRQELLESIVNNVIFNL
# B2: Burkholderia xenovorans: xylose isomerase of this donor organism, expressed in S. cerevisiae (protein, UniProt Q13RB8 1-440, looked up)
# Xylose isomerase: MSYFEHIPEIRYEGPQSDNPLAYRHYDKSKKVLGKTLEEHLRIAVCYWHTFVWPGVDIFGQGTFRRPWQQAGDAMERARQKADSAFEFFSKLGTPYYTFHDTDVSPEGSSLKEYSENFLRITDYLARKQEDTGIKLLWGTANLFSHPRYAAGAATSPDPEVFAFAATQVRHALDATQRLGGDNYVLWGGREGYDTLLNTDLMRERDQLARFLHMVVDHAHKIGFKGSLLIEPKPQEPTKHQYDYDVATVHGFLLQHGLEKEIRVNIEANHATLAGHSFHHEIATAYALGIFGSVDANRGDPQNGWDTDQFPNSVEELTLAFYEILKHGGFTTGGMNFDSKVRRQSVDPEDLFYGHIGAIDNLALAVERAAVLIENDRLDQFKRQRYAGWDADFGRKILSGDYSLSTLATDALARGLNPQHASGHQELMENIVNQAIYSGR
# B3: Bacillus subtilis: xylose isomerase of this donor organism, expressed in S. cerevisiae (protein, UniProt P0CI80 1-445, looked up)
# Xylose isomerase: MAQSHSSSINYFGSANKVVYEGKDSTNPLAFKYYNPQEVIGGKTLKEHLRFSIAYWHTFTADGTDVFGAATMQRPWDHYKGMDLAKMRVEAAFEMFEKLDAPFFAFHDRDIAPEGSTLKETNQNLDMIMGMIKDYMRNSGVKLLWNTANMFTNPRFVHGAATSCNADVFAYAAAQVKKGLETAKELGAENYVFWGGREGYETLLNTDLKFELDNLARFMHMAVDYAKEIGYTGQFLIEPKPKEPTTHQYDTDAATTIAFLKQYGLDNHFKLNLEANHATLAGHTFEHELRMARVHGLLGSVDANQGHPLLGWDTDEFPTDLYSTTLAMYEILQNGGLGSGGLNFDAKVRRSSFEPDDLIYAHIAGMDAFARGLKVAHKLIEDRVFEDVIQHRYRSFTEGIGLEIIEGRANFHTLEQYALNHKSIKNESGRQEKLKAILNQYILEV
# modifications: expressed in S. cerevisiae
# B4: Bacillus licheniformis: xylose isomerase of this donor organism, expressed in S. cerevisiae (protein, UniProt P77832 1-448, looked up)
# Xylose isomerase: MFFRNIGMIEYEGADSENPYAFKYYNPDEFVGGKTMKEHLRFAVAYWHTFDADGKDPFGDGTMFRAWNRLTHPLDKAKARAEAAFEFFEKLGVPYFCFHDVDIVDEGATLRETFTYLDQMSSFLKEMMETSHVQLLWNTANMFTHPRYVHGAATSCNADVYAYAAAKVKKGLDIAKELGAENYVFWGGREGYETLLNTDMKLELENLSSFYRMAVEYAREIGFDGQFLIEPKPKEPTKHQYDFDAATTIAFLETYGLKDHFKLNLEANHATLAGHTFEHELRVAALHDMLGSIDANQGDLLLGWDTDEFPTDLYSAVLAMYEILKAGGFKTGGINFDAKVRRPSFADEDLFHAHIAGMDTYAVGLKVASRLLEDKALDQVIEERYESYTKGIGLEIKEGRTDLKKLAAYALENDHIENQSGRQERLKATVNRYLLNALREAPAGKETH
# B5: Clostridium thermosulfurogenes: xylose isomerase of this donor organism, expressed in S. cerevisiae (protein, UniProt P19148 1-439, looked up)
# Xylose isomerase: MNKYFENVSKIKYEGPKSNNPYSFKFYNPEEVIDGKTMEEHLRFSIAYWHTFTADGTDQFGKATMQRPWNHYTDPMDIAKARVEAAFEFFDKINAPYFCFHDRDIAPEGDTLRETNKNLDTIVAMIKDYLKTSKTKVLWGTANLFSNPRFVHGASTSCNADVFAYSAAQVKKALEITKELGGENYVFWGGREGYETLLNTDMEFELDNFARFLHMAVDYAKEIGFEGQFLIEPKPKEPTKHQYDFDVANVLAFLRKYDLDKYFKVNIEANHATLAFHDFQHELRYARINGVLGSIDANTGDMLLGWDTDQFPTDIRMTTLAMYEVIKMGGFDKGGLNFDAKVRRASFEPEDLFLGHIAGMDAFAKGFKVAYKLVKDRVFDKFIEERYASYKDGIGADIVSGKADFRSLEKYALERSQIVNKSGRQELLESILNQYLFAE
# B6: Staphylococcus xylosus: xylose isomerase of this donor organism, expressed in S. cerevisiae (protein, UniProt P27157 1-439, looked up)
# Xylose isomerase: MSYFDINKVNYEGPKSNNAFSFKYYNPEEKLGNHSMSELLRFSVAYWHTFTADLSDPFGVGVAERDWDSLDEMEKAKARVEAIFEFMEKTRIDYFCFHDVDISPEGASLKESNENLDIIVELIKEKMDQTGKKLLWNTTNNFTHERFVHGAATSSNAEVFAYAAAKVKKSLEIAKKLGSENFVFWGGREGYESLLNTNMKLELDNLATFFKMAKSYADEIGYTGQFLIEPKPKEPTTHQYDTDVATAHAFLQKYDLDKDFKFNIEANHATLAGHTFQHELRYARDNNMLGSVDANQGHPLLGWDTDESTDVYDTTLAMYEILKNGGLAPGGLNFDAKPRRTSFKQEDLILTHIAGMDTFALGLRVAYKMIEDNFFENIMDEKYKSFNEGIGKKIVEGETSLKELEDYAFNINTINNTSDHLEVIKSQINQYILNINNKD
# B7: Escherichia coli: xylose isomerase of this donor organism, expressed in S. cerevisiae (protein, UniProt P00944 1-440, looked up)
# Xylose isomerase: MQAYFDQLDRVRYEGSKSSNPLAFRHYNPDELVLGKRMEEHLRFAACYWHTFCWNGADMFGVGAFNRPWQQPGEALALAKRKADVAFEFFHKLHVPFYCFHDVDVSPEGASLKEYINNFAQMVDVLAGKQEESGVKLLWGTANCFTNPRYGAGAATNPDPEVFSWAATQVVTAMEATHKLGGENYVLWGGREGYETLLNTDLRQEREQLGRFMQMVVEHKHKIGFQGTLLIEPKPQEPTKHQYDYDAATVYGFLKQFGLEKEIKLNIEANHATLAGHSFHHEIATAIALGLFGSVDANRGDAQLGWDTDQFPNSVEENALVMYEILKAGGFTTGGLNFDAKVRRQSTDKYDLFYGHIGAMDTMALALKIAARMIEDGELDKRIAQRYSGWNSELGQQILKGQMSLADLAKYAQEHHLSPVHQSGRQEQLENLVNHYLFDK
# Assay: Xylose isomerase activity assay (sorbitol dehydrogenase/NADH coupled, Kuyper et al.), soluble whole cell extract
# Format: biochemical, Saccharomyces cerevisiae
# Conditions: 500 mM xylose, 100 μg total soluble crude extract
row,Molecule,slope of the activity at saturating xylose (FIG. 25)
1,B1,highest activity of the candidates tested

# Same assay, conditions: xylose between 40 and 500 nM
row,Molecule,specific activity relative to the native XI control
1,B1,greater than 2 fold

# Assay: Heterologous xylose isomerase expression in yeast (active yes/no)
# Format: cell-based, Saccharomyces cerevisiae
# Conditions: xylose isomerase of donor organism expressed in engineered yeast (S. cerevisiae)
row,Molecule,Active? (yes/no)
1,"Actinoplanes missouriensis: xylose isomerase of this donor organism, expressed in S. cerevisiae",No
2,"Bacteroides thetaiotaomicron: xylose isomerase of this donor organism, expressed in S. cerevisiae",Yes
3,"Streptomyces rubiginosus: xylose isomerase of this donor organism, expressed in S. cerevisiae",No
4,"Thermus thermophilus: xylose isomerase of this donor organism, expressed in S. cerevisiae",Yes
5,B2,No
6,B3,No
7,B4,No
8,B5,No
9,B6,No
10,B7,No
